Patent US20040109827A1, “Powdery preparations and proecss for producing the same” (priority 2000, published 2004)

Assay: Cascade impactor (Andersen sampler) analysis of powder formulations as a model of artificial airways and lung
Settings: Table 9
Procedure: In order to investigate aerodynamic particle diameters of powders, examination was carried out using a cascade impactor as a model of artificial airways and lung. The main body comprises 8 stages and a final filter superposed on top of another in combination with a flow meter and a suction pump. The method described in “Multistage Cascade Impactor Apparatus” in USP 2000 “Physical Tests and Determinations/Aerosols” was basically employed. A specific condition is as described below.
Suitable amounts of the formulations were filled into the No. 2 capsules specified by the Japanese Pharmacopoeia and placed on the device.
These formulations were analyzed using a cascade impactor. […] These RF values are obtained by weighing the powders collected at each stage and dividing the amounts collected at stages 2 to 5 by a total amount of finely ground substances contained in the formulations.
These formulations were analyzed using a cascade impactor. […] These RF values are obtained by quantifying by HPLC the glucagon in formulations collected at each stage and dividing the amounts of glucagon at stages 2 to 5 by the total amount of glucagon contained in the encapsulated formulations. Conditions for HPLC analysis are as shown below.
These formulations were filled into the No. 2 capsules specified by the Pharmacopoeia of Japan and analyzed using the following device.

In the case of glucagon, the Retention in capsule (No. 2 capsule, Jet-haler, suctioning for 10 seconds) is reported as “Almost all formulations remained due” and the RF value (glucagon by HPLC at stages 2 to 5 / total glucagon in encapsulated formulations, lactose carrier Pharmatose 325 M) is reported as 0%.
